B1: rat Reg protein (Reg I) (ligand, UniProt P10758 22-165, looked up)
chain: QEAEEDLPSARITCPEGSNAYSSYCYYFMEDHLSWAEADLFCQNMNSGYLVSVLSQAEGNFLASLIKESGTTAANVWIGLHDPKNNRRWHWSSGSLFLYKSWDTGYPNNSNRGYCVSVTSNSGYKKWRDNSCDAQLSFVCKFKA
modifications: [^125I] label by Bolton-Hunter reagent where used as the labelled tracer; unlabeled where used as competitor
B2: human REG protein (REG Iα) (ligand, UniProt P05451 23-166, looked up)
chain: QEAQTELPQARISCPEGTNAYRSYCYYFNEDRETWVDADLYCQNMNSGNLVSVLTQAEGAFVASLIKESGTDDFNVWIGLHDPKKNRRWHWSSGSLVSYKSWGIGAPSSVNPGYCVSLTSSTGFQKWKDVPCEDKFSFVCKFKN

What was measured:
[1] = target: rat Reg-binding protein (rat Reg receptor, rat homologue of EXTL3/EXTR1) with N-terminal HA tag (rat); experiment: radioligand binding on CHO cells stably expressing HA-tagged rat Reg receptor
[2] = target: rat Reg-binding protein (rat Reg receptor, rat homologue of EXTL3/EXTR1) with N-terminal HA tag (rat); experiment: displacement of ^125I-labeled rat Reg protein from CHO cells stably expressing rat Reg receptor
[3] = target: rat Reg-binding protein (rat Reg receptor, rat homologue of EXTL3/EXTR1) with N-terminal HA tag (rat); experiment: cell-based or functional assay
[4] = target: rat Reg-binding protein (rat Reg receptor, rat homologue of EXTL3/EXTR1) with N-terminal HA tag (rat); experiment: displacement of ^125I-labeled rat Reg protein (competitor tracer) from CHO cells stably expressing rat Reg receptor

Row | Binder | Kd [1] | Ki [2] | BrdU incorporation of CHO cell line #3 stably expressing the Reg receptor [3] | BrdU incorporation of CHO cell line #22 stably expressing the Reg receptor [3] | Ki [4]
1 | B1 | 4.41 nM | 1.61 nM | 4.01 nM | 1.11 nM | –
2 | B2 | – | – | – | – | 7.41 nM

— patent EP1188828A1
